The values below come from publication PMC9940634.

The data set has as its target T1, HIC2 ZF2-5 (Homo sapiens, UniProt Q96JB3 503-615).
T1 sequence: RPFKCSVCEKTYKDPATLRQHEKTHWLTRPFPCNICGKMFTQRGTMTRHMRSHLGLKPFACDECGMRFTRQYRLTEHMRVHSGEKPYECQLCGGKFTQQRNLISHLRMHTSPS
Briefly: X-ray crystallography.

B1: +55 enhancer HIC2 motif-2/GATA 16-mer (dsDNA)
DNA 1: AGATAATGCCAACAGT
DNA 2: ACTGTTGGCATTATCT
On to B1, for which the binding result is “binds”.
